In PMC6405930, “Conservation of the Amyloid Interactome Across Diverse Fibrillar Structures” (Scientific Reports, 2019):

B1: Mimecan: CSF protein bound to fibrils (protein, UniProt P20774 21-298, looked up)
Mimecan: PPTQQDSRIIYDYGTDNFEESIFSQDYEDKYLDGKNIKEKETVIIPNEKSLQLQKDEAITPLPPKKENDEMPTCLLCVCLSGSVYCEEVDIDAVPPLPKESAYLYARFNKIKKLTAKDFADIPNLRRLDFTGNLIEDIEDGTFSKLSLLEELSLAENQLLKLPVLPPKLTLFNAKYNKIKSRGIKANAFKKLNNLTFLYLDHNALESVPLNLPESLRVIHLQFNNIASITDDTFCKANDTSYIRDRIEEIRLEGNPIVLGKHPNSFICLKRLPIGSYF
B2: EGF-containing fibulin-like extracellular matrix protein 1: CSF protein bound to fibrils (protein, UniProt Q12805 18-493, looked up)
EGF-containing fibulin-like …: QDTEETITYTQCTDGYEWDPVRQQCKDIDECDIVPDACKGGMKCVNHYGGYLCLPKTAQIIVNNEQPQQETQPAEGTSGATTGVVAASSMATSGVLPGGGFVASAAAVAGPEMQTGRNNFVIRRNPADPQRIPSNPSHRIQCAAGYEQSEHNVCQDIDECTAGTHNCRADQVCINLRGSFACQCPPGYQKRGEQCVDIDECTIPPYCHQRCVNTPGSFYCQCSPGFQLAANNYTCVDINECDASNQCAQQCYNILGSFICQCNQGYELSSDRLNCEDIDECRTSSYLCQYQCVNEPGKFSCMCPQGYQVVRSRTCQDINECETTNECREDEMCWNYHGGFRCYPRNPCQDPYILTPENRCVCPVSNAMCRELPQSIVYKYMSIRSDRSVPSDIFQIQATTIYANTINTFRIKSGNENGEFYLRQTSPVSAMLVLVKSLSGPREHIVDLEMLTVSSIGTFRTSSVLRLTIIVGPFSF
B3: Vitamin D-binding protein: CSF protein bound to fibrils (protein, UniProt P02774 17-474, looked up)
Vitamin D-binding protein: LERGRDYEKNKVCKEFSHLGKEDFTSLSLVLYSRKFPSGTFEQVSQLVKEVVSLTEACCAEGADPDCYDTRTSALSAKSCESNSPFPVHPGTAECCTKEGLERKLCMAALKHQPQEFPTYVEPTNDEICEAFRKDPKEYANQFMWEYSTNYGQAPLSLLVSYTKSYLSMVGSCCTSASPTVCFLKERLQLKHLSLLTTLSNRVCSQYAAYGEKKSRLSNLIKLAQKVPTADLEDVLPLAEDITNILSKCCESASEDCMAKELPEHTVKLCDNLSTKNSKFEDCCQEKTAMDVFVCTYFMPAAQLPELPDVELPTNKDVCDPGNTKVMDKYTFELSRRTHLPEVFLSKVLEPTLKSLGECCDVEDSTTCFNAKGPLLKKELSSFIDKGQELCADYSENTFTEYKKKLAERLKAKLPDATPTELAKLVNKHSDFASNCCSINSPPLYCDSEIDAELKNIL
B4: SPARC-like protein 1: CSF protein bound to fibrils (protein, UniProt Q14515 17-664, looked up)
SPARC-like protein 1: IPTNARLLSDHSKPTAETVAPDNTAIPSLRAEAEENEKETAVSTEDDSHHKAEKSSVLKSKEESHEQSAEQGKSSSQELGLKDQEDSDGHLSVNLEYAPTEGTLDIKEDMSEPQEKKLSENTDFLAPGVSSFTDSNQQESITKREENQEQPRNYSHHQLNRSSKHSQGLRDQGNQEQDPNISNGEEEEEKEPGEVGTHNDNQERKTELPREHANSKQEEDNTQSDDILEESDQPTQVSKMQEDEFDQGNQEQEDNSNAEMEEENASNVNKHIQETEWQSQEGKTGLEAISNHKETEEKTVSEALLMEPTDDGNTTPRNHGVDDDGDDDGDDGGTDGPRHSASDDYFIPSQAFLEAERAQSIAYHLKIEEQREKVHENENIGTTEPGEHQEAKKAENSSNEEETSSEGNMRVHAVDSCMSFQCKRGHICKADQQGKPHCVCQDPVTCPPTKPLDQVCGTDNQTYASSCHLFATKCRLEGTKKGHQLQLDYFGACKSIPTCTDFEVIQFPLRMRDWLKNILMQLYEANSEHAGYLNEKQRNKVKKIYLDEKRLLAGDHPIDLLLRDFKKNYHMYVYPVHWQFSELDQHPMDRVLTHSELAPLRASLVPMEHCITRFFEECDPNKDKHITLKEWGHCFGIKEEDIDENLLF

The molecules below were run on T1, Ab2 fibrils (assay: Fibril incubation with CSF, quantitative MS/MS of bound proteins). Settings: 4:1 w/w CSF protein:fibril.
T1 construct: Two structurally distinct fibrils of the Aβ(1–40) peptide associated with AD
Assay type: binding, human
Protocol: (§1) Plasma and CSF solutions were centrifuged (40,000 g, 20 min) to remove any aggregates. The protein concentration was determined using 280 nm absorbance assuming 1 Abs = 1 mg/mL. […] Control samples (without fibril material) were prepared similarly. All samples were incubated at room temperature for one hour under gentle agitation. Fibrils and fibril-bound proteins were pelleted by centrifugation at 17,000 g for 30 minutes. The supernatant (175 μL) was removed and the aggregate was re-suspended in 175 μL PBS and pelleted again before further preparation for gel analysis and spin-filter assisted digest for quantitative MS/MS.
(§2) The fibril-protein pellets were transferred to spin-filters (0.22 μm), washed twice in PBS (100 μL) and once in 1 M NaCl (100 μL). The fibrils and fibril-bound proteins were dissolved by one-hour incubation in 100 μL 6 M guanidinium chloride followed by elution from the spin-filter. The eluted proteins were loaded onto a 3 kDa MWCO filter unit for filter-assisted unfolding, reduction, alkylation, and trypsin digestion. In brief, samples were washed twice in 8 M urea, once in 8 M urea with 50 mM DTT, once in 8 M urea with 50 mM iodoaceteamide, and twice in 8 M Urea. The filter units were dried by centrifugation (14,000 g in 30 minutes) after every addition. Trypsin digestion was carried out with 0.25 μg sequencing grade trypsin from Sigma Aldrich in 50 mM ammonium bicarbonate overnight at 37 °C. The tryptic peptides were collected by centrifugation, acidified with TFA (0.1%) and micro-purified using POROS R2 column material (Applied Biosystems) packed in P200 pipette tips (Sarstedt).
(§3) LC-MS/MS analyses were performed on an EASY-nLC II system (Thermo Fisher Scientific) connected to a TripleTOF 5600+ mass spectrometer (Sciex) equipped with a NanoSpray III source (Sciex) and operated under Analyst TF 1.6.0 control.
(§4) The micro-purified tryptic peptides were dissolved in 0.1% formic acid, injected and trapped on an in-house packed trap column (2 cm × 100 μm I.D) with RP ReproSil-Pur C18-AQ 3 μm resin (Dr. Maisch GmbH). Peptides were eluted from the trap column and separated on a 15 cm analytical column (75 μm i.d.) packed in-house in a pulled emitter with RP ReproSil-Pur C18-AQ 3 μm resin (Dr. Maisch GmbH). Elution from the analytical column was performed with a linear gradient from 5% to 35% phase B (90% acetonitrile with 0.1% formic acid) over 20 min for protein identification and 50 min for quantitative analysis, respectively.
(§5) All samples were analysed three times, yielding nine MS/MS experiments for each fibril for both plasma and CSF. For the area-based extracted ion chromatogram (XIC) quantification, the acquisition method was set up as an information-dependent acquisition (IDA) experiment collecting up to 25 MS/MS spectra in each 1.6 sec cycle using an exclusion window of 6 sec.
(§6) XIC quantification was based on the average ion intensity of the three most abundant peptides for each protein. Only proteins quantified in at least four out of nine MS/MS experiments per fibril were included in the quantification. The total ion scores were visualized after grouping the proteins according to function (Figure S11).
(§7) For each MS/MS experiment, the ion intensities of the individual proteins were normalized to the total ion intensity of that MS/MS experiment to achieve a relative protein composition. The contribution of each protein was averaged over all nine MS/MS experiments (Tables 1 and 2).
In the case of B1, the “Relative composition of CSF proteins bound: Ab2” value is reported as 0.6 ± 0.2 % of total protein. B2 was tested, and the “Relative composition of CSF proteins bound: Ab2” value was 1.0 ± 0.3 % of total protein. B3 was tested, and the “Relative composition of CSF proteins bound: Ab2” value was 1.1 ± 0.0 % of total protein. With B4 the “Relative composition of CSF proteins bound: Ab2” value was 1.4 ± 0.0 % of total protein.

What follows are molecules tested against T2, glucagon fibrils (Homo sapiens, UniProt P01275) in the same assay as above. Settings: 4:1 w/w CSF protein:fibril.
T2 construct: fibrils of the peptide hormone glucagon
T2 sequence (P01275 53-81 limits assumed): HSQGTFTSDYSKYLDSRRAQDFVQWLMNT
Assay type: binding
Protocol: as §1, §2, §3, §4, §5, §6, §7
With B1 the “Relative composition of CSF proteins bound: Glucagon” value was 0.2 ± 0.1 % of total protein. B2 was tested, and the “Relative composition of CSF proteins bound: Glucagon” value was 0.2 ± 0.1 % of total protein. B3 was tested, and the “Relative composition of CSF proteins bound: Glucagon” value was 0.8 ± 0.1 % of total protein. For B4, the “Relative composition of CSF proteins bound: Glucagon” value was 0.4 ± 0.1 % of total protein.

The molecules below were run on T3, FAS4-AD aggregates in the same assay as above. Settings: symbol cells.
T3 construct: aggregates of a mutated version of the FAS1-4 domain of TGFBIp
Assay type: binding, human
Design: key to Identification status of CSF protein bound: FAS4-AD: *: Identified, but not quantified; —: Not identified in any of the samples
Protocol: as §1, §2, §3, §4, §5, §6, §7
In the case of B1, the “Identification status of CSF protein bound: FAS4-AD” value is reported as “*”. B2 was tested, and the “Identification status of CSF protein bound: FAS4-AD” value was “—”. For B3, the “Identification status of CSF protein bound: FAS4-AD” value was “—”. With B4 the “Identification status of CSF protein bound: FAS4-AD” value was “—”.

These molecules were tested against αSN fibrils (Homo sapiens, UniProt P37840) in the same assay as above. Settings: 4:1 w/w CSF protein:fibril.
Assay type: binding
Design: key to Identification status of CSF protein bound: αSN: *: Identified, but not quantified; —: Not identified in any of the samples
Protocol: as §1, §2, §3, §4, §5, §6, §7
In the case of B1, the “Relative composition of CSF proteins bound: αSN” value is reported as 2.1 ± 0.9 % of total protein.

Same assay, conditions: symbol cells
B2 was tested, and the “Identification status of CSF protein bound: αSN” value was “*”. With B3 the “Identification status of CSF protein bound: αSN” value was “—”. With B4 the “Identification status of CSF protein bound: αSN” value was “*”.

What follows are molecules tested on T4, Ab1 fibrils in the same assay as above. Settings: 4:1 w/w CSF protein:fibril.
T4 construct: Synthetic amyloid β peptide 1–40 was purchased from Caslo Aps (Lyngby, Denmark); purchased Caslo Aps (Lyngby, Denmark); host or cells: synthetic peptide
Assay type: binding, human
Protocol: as §1, §2, §3, §4, §5, §6, §7
With B1 the “Relative composition of CSF proteins bound: Ab1” value was 0.5 ± 0.0 % of total protein. For B2, the “Relative composition of CSF proteins bound: Ab1” value was 0.6 ± 0.2 % of total protein. B3 was tested, and the “Relative composition of CSF proteins bound: Ab1” value was 0.7 ± 0.0 % of total protein. For B4, the “Relative composition of CSF proteins bound: Ab1” value was 1.2 ± 0.1 % of total protein.

These molecules were tested against T5, C-36 fibrils (Homo sapiens, UniProt P01009) in the same assay as above. Settings: 4:1 w/w CSF protein:fibril.
T5 construct: the 36 residue C-terminal fragment of α1-antitrypsin (C-36)
T5 sequence (P01009 383-418 limits assumed): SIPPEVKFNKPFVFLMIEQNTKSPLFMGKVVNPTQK
Assay type: binding
Protocol: as §1, §2, §3, §4, §5, §6, §7
For B1, the “Relative composition of CSF proteins bound: C-36” value was 0.4 ± 0.1 % of total protein. For B2, the “Relative composition of CSF proteins bound: C-36” value was 0.7 ± 0.1 % of total protein. In the case of B3, the “Relative composition of CSF proteins bound: C-36” value is reported as 1.4 ± 0.8 % of total protein. B4 was tested, and the “Relative composition of CSF proteins bound: C-36” value was 0.8 ± 0.4 % of total protein.
